Data from publication PMC3984077.

Target: HasSCTD, the last 78 residues of the antisigma factor HasS of Serratia marcescens (Serratia marcescens) (UniProt Q79AD3)
Test: NMR titration; 1H-15N HSQC, one partner 15N-labelled in turn, peak intensities before and after adding the unlabelled partner; 250 µM HasSCTD with 200, 400 or 800 µM signaling domain, or 100 µM 15N signaling domain with 250 µM HasSCTD; control with 400 µM periplasmic domain; sodium phosphate pH 7, 50 mM NaCl, 0.05% Zw, 15% D2O; 20°C

Substance “signaling domain of the TonB-dependent outer membrane transporter HasR (from UniProt Q79AD2) (domain or fragment)” has a reduction of the overall HSQC peak intensity of 15N HasSCTD of 35%.
